Laboratory results published in the Human Domainome abundance scans (Beltran et al. 2025).
± gives the uncertainty stated by the source.

B1: Nucleolar transcription factor 1, residues 408 to 469; numbered along this chain, P17480 (parent)
chain: KRPVSAMFIFSEEKRRQLQEERPELSESELTRLLARMWNDLSEKKKAKYKAREAALKAQSER

Variants of: B1
Test: abundance fitness (aPCA) (normalised: wild type 0, dead -1); higher = more abundant; growth selection in yeast, the domain comes from the species named
Settings: Homo sapiens

Abundance fitness, by site and new letter:
K46: P -0.772 ± 0.1 | F -0.785 ± 0.12 | Y -0.748 ± 0.084 | L -0.453 ± 0.046 | T -0.393 ± 0.089 | A -0.311 ± 0.045 | G -0.806 ± 0.045 | V -0.3 ± 0.043 | M -0.336 ± 0.07 | H -0.662 ± 0.21 | S -0.569 ± 0.069 | W -0.736 ± 0.066 | E -0.708 ± 0.065 | D -0.896 ± 0.11 | Q -0.112 ± 0.068 | C -0.537 ± 0.095 | R -0.069 ± 0.04
E43: S -0.213 ± 0.17 | L -0.205 ± 0.083 | G -0.231 ± 0.073 | R -0.329 ± 0.064 | A -0.001 ± 0.099 | D -0.367 ± 0.29 | V -0.207 ± 0.11 | P -0.592 ± 0.34 | W -0.276 ± 0.072
E27: V -0.201 ± 0.055 | W -0.328 ± 0.11 | Y -0.108 ± 0.1 | T -0.133 ± 0.072
N39: Y -0.075 ± 0.082 | W -0.203 ± 0.046 | F -0.061 ± 0.1 | H -0.106 ± 0.11 | L -0.122 ± 0.049 | M -0.071 ± 0.071 | V -0.166 ± 0.054 | P -0.608 ± 0.066 | I -0.147 ± 0.12 | K -0.087 ± 0.097 | D -0.021 ± 0.28 | S -0.054 ± 0.046 | C -0.138 ± 0.11 | R -0.058 ± 0.037 | A -0.037 ± 0.042 | T -0.038 ± 0.065 | Q -0.015 ± 0.058 | E -0.037 ± 0.057
A47: C -0.156 ± 0.13 | P -0.695 ± 0.082 | K -0.029 ± 0.063 | T -0.138 ± 0.11 | Q -0.005 ± 0.054 | E -0.039 ± 0.086 | N -0.297 ± 0.23 | H -0.295 ± 0.2 | S -0.046 ± 0.063 | L -0.064 ± 0.047 | F -0.11 ± 0.26 | R -0.047 ± 0.05 | Y -0.122 ± 0.15 | I -0.184 ± 0.15 | D -0.291 ± 0.17 | G -0.098 ± 0.052
L30: Y -0.099 ± 0.095 | N -0.303 ± 0.082 | Q -0.032 ± 0.074 | H -0.232 ± 0.12 | P -1.1 ± 0.17 | W -0.177 ± 0.042 | D -0.65 ± 0.27 | F -0.327 ± 0.1 | G -0.254 ± 0.047 | K -0.103 ± 0.076 | T -0.118 ± 0.097 | E -0.227 ± 0.09 | M -0.043 ± 0.059 | C -0.078 ± 0.084 | R -0.108 ± 0.043 | I -0.171 ± 0.13 | S -0.178 ± 0.069
E29: N -0.174 ± 0.11 | P -1.14 ± 0.083 | F -0.603 ± 0.083 | T -0.157 ± 0.089 | S -0.17 ± 0.067 | L -0.304 ± 0.047 | W -0.699 ± 0.069 | K -0.207 ± 0.079 | V -0.258 ± 0.045 | R -0.496 ± 0.047 | Y -0.433 ± 0.096 | C -0.223 ± 0.14 | M -0.172 ± 0.064 | Q -0.111 ± 0.066 | I -0.327 ± 0.14 | G -0.2 ± 0.041 | H -0.223 ± 0.12
K48: A 0.001 ± 0.053
L34: K -1.27 ± 0.21 | F -0.296 ± 0.12 | G -0.566 ± 0.06 | P -0.945 ± 0.17 | V -0.026 ± 0.057 | Q -0.525 ± 0.085 | E -0.287 ± 0.081 | R -0.954 ± 0.06 | A -0.192 ± 0.053 | W -1.01 ± 0.062 | I -0.074 ± 0.091 | S -0.271 ± 0.064 | T -0.096 ± 0.082 | D -1.19 ± 0.45 | C -0.049 ± 0.11 | Y -0.833 ± 0.14 | N -0.931 ± 0.12
W38: A -0.892 ± 0.065 | Y -0.151 ± 0.17 | H -0.803 ± 0.11 | M -1.06 ± 0.08 | D -0.456 ± 0.099 | E -0.49 ± 0.057 | I -0.867 ± 0.14 | R -1.01 ± 0.048 | Q -0.701 ± 0.094 | N -1.07 ± 0.22 | L -0.985 ± 0.07 | P -0.737 ± 0.084 | S -0.732 ± 0.054 | C -0.98 ± 0.092 | K -0.787 ± 0.12 | G -0.667 ± 0.041
K44: L -0.108 ± 0.043 | W -0.09 ± 0.053 | M -0.096 ± 0.056 | H -0.121 ± 0.12 | V -0.034 ± 0.04 | E -0.021 ± 0.064 | P -0.037 ± 0.051 | S 0.003 ± 0.041 | C -0.126 ± 0.083 | I -0.159 ± 0.081 | D 0.059 ± 0.087 | T -0.023 ± 0.059 | R -0.139 ± 0.035
R32: K 0.021 ± 0.048 | A -0.033 ± 0.048 | D -0.058 ± 0.18 | G -0.085 ± 0.045 | S 0.022 ± 0.066 | Y -0.157 ± 0.13 | I -0.007 ± 0.13 | P -0.116 ± 0.073 | H 0.023 ± 0.083 | T -0.007 ± 0.092 | F -0.188 ± 0.11 | W -0.136 ± 0.054 | L -0.018 ± 0.044 | E -0.07 ± 0.076 | M -0.105 ± 0.083
L33: K -0.154 ± 0.085 | A -0.118 ± 0.052 | W -0.315 ± 0.086 | Q -0.092 ± 0.083 | C -0.1 ± 0.1 | E 0.006 ± 0.089 | P -1.22 ± 0.19 | R -0.159 ± 0.055 | M -0.023 ± 0.17 | H -0.02 ± 0.13 | S -0.188 ± 0.07 | I 0.016 ± 0.088 | D -0.149 ± 0.069 | V -0.067 ± 0.046
S42: L -0.661 ± 0.052 | R -0.698 ± 0.062 | A -0.115 ± 0.058 | P -0.081 ± 0.059 | W -1.06 ± 0.091 | G -0.082 ± 0.05 | D 0.002 ± 0.1 | Y -0.619 ± 0.099 | T -0.078 ± 0.049 | E -0.121 ± 0.075 | Q -0.288 ± 0.068 | K -0.294 ± 0.061 | N -0.147 ± 0.13 | M -0.654 ± 0.069 | H -0.179 ± 0.22 | I -0.56 ± 0.097 | V -0.427 ± 0.036 | C -0.155 ± 0.095
R36: L -0.093 ± 0.046 | P -0.483 ± 0.11 | A -0.006 ± 0.063 | F -0.097 ± 0.11 | K -0.072 ± 0.08 | T -0.037 ± 0.071 | I -0.101 ± 0.12 | G -0.111 ± 0.039 | D 0.028 ± 0.095 | M -0.103 ± 0.066 | V -0.05 ± 0.052 | H -0.321 ± 0.24 | N -0.023 ± 0.12 | E -0.084 ± 0.054 | W -0.182 ± 0.058 | Q -0.096 ± 0.087 | C -0.051 ± 0.078
K45: F -0.105 ± 0.088 | Q 0.014 ± 0.058 | G -0.009 ± 0.044 | R -0.061 ± 0.038 | M -0.039 ± 0.049 | T -0.067 ± 0.042 | N -0.064 ± 0.072 | I -0.07 ± 0.063 | W -0.232 ± 0.047 | C -0.002 ± 0.062 | H -0.099 ± 0.11 | L -0.131 ± 0.054 | E 0.067 ± 0.055 | Y -0.181 ± 0.094 | D -0.052 ± 0.097 | A -0.048 ± 0.052 | P -0.435 ± 0.069 | S -0.023 ± 0.04 | V -0.097 ± 0.042
S28: T -0.076 ± 0.056 | Q -0.08 ± 0.071 | R -0.113 ± 0.065 | D 0.055 ± 0.074 | G -0.047 ± 0.06 | M -0.131 ± 0.067 | F -0.071 ± 0.047 | E -0.011 ± 0.14 | K -0.037 ± 0.09 | H -0.06 ± 0.046 | P -0.047 ± 0.047 | Y -0.085 ± 0.057 | A -0.053 ± 0.058 | I -0.046 ± 0.049 | V -0.089 ± 0.057 | N -0.053 ± 0.05 | C -0.043 ± 0.082
T31: K -0.086 ± 0.086 | I -0.25 ± 0.092 | D 0.005 ± 0.092 | A -0.043 ± 0.065 | L -0.107 ± 0.049 | V -0.131 ± 0.061 | M -0.133 ± 0.058 | Q -0.045 ± 0.081 | E -0.051 ± 0.08 | Y -0.428 ± 0.21 | S -0.02 ± 0.036 | R -0.07 ± 0.042 | P -0.423 ± 0.079 | G -0.116 ± 0.047 | C -0.143 ± 0.08 | F -0.308 ± 0.12 | H -0.074 ± 0.091 | W -0.221 ± 0.056
D40: L -0.105 ± 0.052 | F -0.135 ± 0.13 | M -0.044 ± 0.08 | E -0.058 ± 0.054 | S -0.107 ± 0.064 | V -0.188 ± 0.05 | A -0.143 ± 0.06 | W -0.319 ± 0.056 | Q -0.036 ± 0.081 | N -0.265 ± 0.087 | I -0.763 ± 0.27 | C -0.213 ± 0.077 | H -0.257 ± 0.21 | R -0.237 ± 0.039 | P -0.911 ± 0.09 | T -0.202 ± 0.078 | K -0.15 ± 0.084 | G -0.094 ± 0.038
L41: A -0.165 ± 0.061 | D -0.613 ± 0.079 | K -0.576 ± 0.075 | S -0.228 ± 0.061 | G -0.932 ± 0.049 | F -0.362 ± 0.14 | C -0.219 ± 0.093 | Y -0.507 ± 0.25 | T -0.241 ± 0.065 | N -0.609 ± 0.29 | V -0.345 ± 0.042 | H -0.8 ± 0.13 | P -0.846 ± 0.093 | M -0.066 ± 0.074 | W -1.06 ± 0.074 | Q -0.225 ± 0.07 | I -0.139 ± 0.11 | E -0.388 ± 0.061 | R -0.57 ± 0.054
A35: N -0.011 ± 0.14 | Q -0.017 ± 0.095 | I -0.015 ± 0.11 | T 0.014 ± 0.093 | C -0.194 ± 0.13 | L -0.063 ± 0.038 | M -0.102 ± 0.063 | D -0.035 ± 0.097 | E -0.009 ± 0.058 | S -0.063 ± 0.063 | Y -0.387 ± 0.1 | W -0.273 ± 0.056 | V -0.057 ± 0.047 | R -0.018 ± 0.049 | H -0.341 ± 0.076 | F -0.176 ± 0.096
M37: L -0.062 ± 0.041 | C -0.193 ± 0.1 | D -0.422 ± 0.14 | Q -0.237 ± 0.088 | H -0.267 ± 0.12 | S -0.225 ± 0.058 | E -0.094 ± 0.056 | P -1.1 ± 0.092 | A -0.095 ± 0.06 | K -0.296 ± 0.087 | T -0.212 ± 0.07 | G -0.32 ± 0.036 | F -0.239 ± 0.15 | R -0.147 ± 0.041 | Y -0.12 ± 0.055 | I -0.235 ± 0.14 | V -0.382 ± 0.044 | N -0.305 ± 0.19
